Data as given in paper doi:10.1101/2021.07.05.451181 (bioRxiv, 2021).

Molecular target: the molecule itself
Assay: single-molecule photobleaching step counting

B1: GFP-TAX-4 (cyclic nucleotide-gated TAX-4 ion channel with EGFP fused to the cytosolic N-terminus) (natural protein, C. elegans, UniProt Q03611 1-733, looked up)
chain: MSTAEPAPDPTNPSTSGLAPTTNGIGSPPPTASAATKFSILTKFLRRKNQVHTTTAQQNEFMQKYMPNGNSNAVQPAATGGQPASSDGGSAIEVPPPKESYAVRIRKYLANYTQDPSTDNFYYWTCVVTVAYIYNLLFVIARQVFNDLIGPSSQSLCRFYNGTLNSTTQVECTYNMLTNMKEMPTYSQYPDLGWSKYWHFRMLWVFFDLLMDCVYLIDTFLNYRMGYMDQGLVVREAEKVTKAYWQSKQYRIDGISLIPLDYILGWPIPYINWRGLPILRLNRLIRYKRVRNCLERTETRSSMPNAFRVVVVVWYIVIIIHWNACLYFWISEWIGLGTDAWVYGHLNKQSLPDDITDTLLRRYVYSFYWSTLILTTIGEVPSPVRNIEYAFVTLDLMCGVLIFATIVGNVGSMISNMSAARTEFQNKMDGIKQYMELRKVSKQLEIRVIKWFDYLWTNKQSLSDQQVLKVLPDKLQAEIAMQVHFETLRKVRIFQDCEAGLLAELVLKLQLQVFSPGDFICKKGDIGREMYIVKRGRLQVVDDDGKKVFVTLQEGSVFGELSILNIAGSKNGNRRTANVRSVGYTDLFVLSKTDLWNALREYPDARKLLLAKGREILKKDNLLDENAPEEQKTVEEIAEHLNNAVKVLQTRMARLIVEHSSTEGKLMKRIEMLEKHLSRYKALARRQKTMHGVSIDGGDISTDGVDERVRPPRLRQTKTIDLPTGTESESLLK
For B1, which “stoichiometry N” value is on record?
Its value is 4.
